From US20240301071A1 (Alector, published 2024)

T1: rat SIRPA (rat, UniProt P97710 32-373, limits assumed)
T1 sequence (looked up): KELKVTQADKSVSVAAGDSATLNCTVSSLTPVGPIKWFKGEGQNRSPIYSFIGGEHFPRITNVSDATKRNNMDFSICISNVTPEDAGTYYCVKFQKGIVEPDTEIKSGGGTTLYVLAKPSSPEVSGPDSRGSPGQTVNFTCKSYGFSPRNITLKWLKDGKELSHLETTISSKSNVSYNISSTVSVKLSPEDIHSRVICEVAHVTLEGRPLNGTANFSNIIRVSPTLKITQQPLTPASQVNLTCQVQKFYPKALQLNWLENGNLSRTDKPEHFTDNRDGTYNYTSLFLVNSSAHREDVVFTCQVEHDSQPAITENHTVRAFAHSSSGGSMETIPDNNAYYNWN

T2: cynoSIRPA XPO15313153.1 (cynomolgus, UniProt A0A2K5VYQ9)
T2 construct: not tied one by one in the text; also called cynomolgus SIRPA; not shown: Fc or His tag
T2 sequence: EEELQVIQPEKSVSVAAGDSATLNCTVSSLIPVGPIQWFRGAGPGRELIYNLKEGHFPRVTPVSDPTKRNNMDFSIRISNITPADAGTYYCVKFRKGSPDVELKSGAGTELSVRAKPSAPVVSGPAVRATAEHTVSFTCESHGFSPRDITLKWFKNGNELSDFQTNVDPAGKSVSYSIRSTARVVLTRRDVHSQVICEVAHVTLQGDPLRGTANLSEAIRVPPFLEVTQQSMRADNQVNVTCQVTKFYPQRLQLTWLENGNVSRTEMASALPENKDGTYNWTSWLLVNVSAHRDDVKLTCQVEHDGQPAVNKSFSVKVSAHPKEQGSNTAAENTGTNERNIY

T3: Fc-tagged marmoset SIRPA (accession no. JAB51896) (marmoset, UniProt U3F8F0 31-373)
T3 sequence: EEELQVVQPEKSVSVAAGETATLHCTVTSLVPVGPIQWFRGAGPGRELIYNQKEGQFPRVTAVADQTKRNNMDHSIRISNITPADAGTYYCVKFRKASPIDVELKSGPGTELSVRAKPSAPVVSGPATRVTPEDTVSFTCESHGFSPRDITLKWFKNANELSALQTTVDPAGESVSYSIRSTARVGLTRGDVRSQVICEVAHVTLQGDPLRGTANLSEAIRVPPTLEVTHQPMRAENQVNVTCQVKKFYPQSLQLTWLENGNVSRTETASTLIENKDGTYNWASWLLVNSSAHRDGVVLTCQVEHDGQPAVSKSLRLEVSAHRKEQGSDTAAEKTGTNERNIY

T4: Fc-tagged dog SIRPA (accession no. XP005634938) (dog, UniProt A0A8I3P880)
T4 sequence: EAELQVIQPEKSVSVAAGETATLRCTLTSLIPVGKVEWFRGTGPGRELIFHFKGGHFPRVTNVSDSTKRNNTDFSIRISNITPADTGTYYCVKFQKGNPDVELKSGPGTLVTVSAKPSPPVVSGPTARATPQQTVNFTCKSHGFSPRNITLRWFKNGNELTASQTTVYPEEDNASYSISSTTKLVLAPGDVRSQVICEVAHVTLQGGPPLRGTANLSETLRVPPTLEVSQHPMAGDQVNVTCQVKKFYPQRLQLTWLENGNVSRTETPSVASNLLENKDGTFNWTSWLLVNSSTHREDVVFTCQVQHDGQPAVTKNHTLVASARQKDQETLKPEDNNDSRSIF

B1: 3F9-14 (antibody)
heavy: not shown
light: DIQLTQSPSSLSASVGDRVTITCRASKSVSSGGYSYMHWYQQKPGKAPKLLIYLASNLESGVPSRFSGSGSGTDFTLTISSVQPEDFATYYCQHNRELPVTFGQGTKLEIKRTVAAPSVFIFPPSDEQLKSGTASVVCLLNNFYPREAKVQWKVDNALQSGNSQESVTEQDSKDSTYSLSSTLTLSKADYEKHKVYACEVTHQGLSSPVTKSFNRGEC
notes: also called mAb 3F9-14; hu3F9-14
B2: 3F9-22 (antibody)
heavy: not shown
light: B1 light
notes: also called mAb 3F9-22; hu3F9-22
B3: 3F9 Fab (Fab, V domains shown)
VH: EVKLVESGGGLVKPGGSLKLSCAASGFTFSSYAMSWVRQTPEKRLEWVATISDYGGSYTYYPDSVKGRFTISRDNAKYTLYLQMSSLRSEDTALYYCARPPYDDYYGGFAYWGQGTLVTVSA
VL: DIVLTQSPASLAVSLGQRATISCRASKSVSSSGYSYMHWYQQKPGQPPKLLIYLASNLESGVPARFSGSGSGTDFTLNIHPVEEEDAATYYCQHNRELPCTFGGGTKLEIK

Tests used:
[1] = molecular target: T5, human SIRPA on human macrophages (primary monocyte-derived macrophages; U937 line) (human, UniProt P78324 31-504); assay: cell-based or functional assay
T5 sequence (P78324 31-370): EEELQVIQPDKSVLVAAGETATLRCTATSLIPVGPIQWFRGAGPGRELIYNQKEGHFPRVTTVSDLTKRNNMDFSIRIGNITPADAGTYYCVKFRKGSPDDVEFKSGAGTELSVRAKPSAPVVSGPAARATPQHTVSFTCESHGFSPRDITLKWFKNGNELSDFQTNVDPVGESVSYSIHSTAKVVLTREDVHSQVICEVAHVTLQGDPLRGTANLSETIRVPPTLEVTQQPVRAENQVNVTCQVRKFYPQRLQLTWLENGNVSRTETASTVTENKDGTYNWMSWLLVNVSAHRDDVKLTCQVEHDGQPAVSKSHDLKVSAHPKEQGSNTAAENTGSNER

[2] = molecular target: T6, human SIRPA v1 on BWZ cells (BWZ-huSIRPA) (human, UniProt P78324 31-504); assay: flow cytometry titration on BWZ-huSIRPA cells, 4 C
T6 construct: also called BWZ cells overexpressing human SIRPA; BWZ-huSIRPA v1 cells
T6 sequence (P78324 31-504): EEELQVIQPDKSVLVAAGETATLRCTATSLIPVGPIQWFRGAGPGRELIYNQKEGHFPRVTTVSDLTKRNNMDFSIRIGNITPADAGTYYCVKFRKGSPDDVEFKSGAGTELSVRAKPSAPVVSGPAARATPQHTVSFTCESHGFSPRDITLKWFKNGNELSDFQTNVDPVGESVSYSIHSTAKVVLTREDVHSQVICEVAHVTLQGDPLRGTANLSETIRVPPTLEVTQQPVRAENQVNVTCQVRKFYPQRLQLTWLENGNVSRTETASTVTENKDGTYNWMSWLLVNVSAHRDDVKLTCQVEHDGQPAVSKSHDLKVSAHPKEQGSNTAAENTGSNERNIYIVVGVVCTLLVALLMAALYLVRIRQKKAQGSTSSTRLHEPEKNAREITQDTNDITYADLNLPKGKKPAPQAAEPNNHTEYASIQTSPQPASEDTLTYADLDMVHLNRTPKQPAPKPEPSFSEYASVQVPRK
Experimental: After addition of fluorescently labeled secondary antibody and brief washing steps, MFI values as a function of titrated antibody concentration was recorded via FACS analysis. […] Receptor bound antibodies were detected by staining cells with anti-human IgG PE secondary antibody. Curves were fit using nonlinear regression analysis with Graphpad Prism 6 software.

rat SIRPA = molecular target: T1, rat SIRPA; assay: ELISA, plate coated with tagged SIRPA at 1 ug/mL
Experimental: (§1) In an ELISA assay, 96-well Immulon HBX plates were coated with His- or Fc-tagged SIRPA of a given species, as indicated, at 1 μg/mL in PBS overnight at 4C. Plates were blocked in 5% (w/v) bovine serum albumin in PBS for 1 hour, after which they were washed 3 times with PBS/0.05% Tween 20 (PBS/T). Anti-SIRPA antibodies were added to the plate in a dilution series and were incubated at room temperature for 2 hours, after which the unbound antibody was removed by washing with PBS/T. Horseradish peroxidase-conjugated anti-mouse IgG or anti-human kappa light chain (Jackson Immunoresearch) was then added to the wells and incubated for 30 minutes. Unbound antibody was removed by washing with PBS/T, after which bound antibody was detected using tetramethylbenzidine (TMB). The reaction was stopped with 2N H₂SO₄, after which the plates were read at A450.

huSIRPA v.2 NP542970.1 = molecular target: T7, huSIRPA v.2 NP542970.1 (human, UniProt P78324 31-373, limits assumed); assay: ELISA, plate coated with tagged SIRPA at 1 ug/mL
T7 construct: see m48; also called human SIRPA v2; human SIRPA-Fc (v2)
T7 sequence (P78324 31-373 limits assumed): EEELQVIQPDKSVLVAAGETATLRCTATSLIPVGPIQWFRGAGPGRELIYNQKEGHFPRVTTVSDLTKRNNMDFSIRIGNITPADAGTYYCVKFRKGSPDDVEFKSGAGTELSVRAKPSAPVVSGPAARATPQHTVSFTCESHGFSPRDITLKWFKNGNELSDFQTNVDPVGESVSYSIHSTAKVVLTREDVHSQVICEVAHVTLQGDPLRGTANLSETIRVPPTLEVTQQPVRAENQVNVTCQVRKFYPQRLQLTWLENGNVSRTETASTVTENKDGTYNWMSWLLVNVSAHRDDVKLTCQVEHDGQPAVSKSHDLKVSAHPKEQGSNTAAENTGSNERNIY
Experimental: as §1

cynoSIRPA XPO15313153.1 = molecular target: T2, cynoSIRPA XPO15313153.1; assay: ELISA, plate coated with tagged SIRPA at 1 ug/mL
Experimental: as §1

[3] = molecular target: T8, histidine-tagged human SIRPA v1 (Novoprotein) (human, UniProt P78324 31-370, limits assumed); assay: BLI (Octet), antibody on anti-human IgG Fc sensor, His-huSIRPA in solution, single-curve 1:1 fit
T8 construct: bought, soluble; also called huSIRPA; soluble huSIRPA; not shown: histidine tag
T8 sequence (P78324 31-370 limits assumed): as the sequence (P78324 31-370) above
Experimental: (§2) Initial characterization of affinity matured anti-SIRPA antibodies disclosed herein comprised acquiring antigen affinity measurements using bio-layer interferometry (BLI) on a Pall ForteBio Octet RED96 instrument. Immobilized anti-mouse IgG Fc or anti-human IgG Fc antibodies captured murine anti-SIRPA 3F79 antibody and humanized anti-SIRPA 3F79 antibody on biosensors, respectively. Single cycle kinetics were performed with 25 nM huSIRPA [which variant?] or 50 nM huSIRPB 1 flowed over captured antibody 3F79 to record traces. Data analysis was performed using ForteBio Data Analysis Software, version 9.0. Standard kinetic buffer (PBS, 0.100 BSA, 0.02% Tween-20, pH 7.2) was used for the assay and for preparing reagents. […] 50 nM of histidine-tagged human SIRPA vi or human SIRPB1 (Novoprotein, Summit, NJ, USA) were then bound to the captured anti-SIRPA antibody coated surface (200 s association time, 900 s dissociation time). […] Single-curve kinetic analysis was performed using a 1:1 interaction model to extract association and dissociation rate constants (ka and kd, respectively) for each antibody. Affinity constants (KD) were calculated from the ratio kd/ka.

[4] = molecular target: T5, human SIRPA on human macrophages …; assay: cell-based or functional assay; remark: listed apart in the source
[5] = molecular target: T3, Fc-tagged marmoset SIRPA (accession no. …); assay: ELISA, plate coated with Fc-tagged SIRPA
Experimental: as §1

[6] = molecular target: T4, Fc-tagged dog SIRPA (accession no. …); assay: ELISA, plate coated with Fc-tagged SIRPA
Experimental: as §1

[7] = molecular target: T8, histidine-tagged human SIRPA v1 …; assay: BLI (Octet)
Experimental: as §2

[8] = molecular target: human SIRPA E297A (V5-tagged library clone on HEK-293T cells) (human, UniProt P78324 31-504); assay: flow cytometry of Fab on HEK-293T cells expressing the mutant, normalised to wild-type SIRPA
Sequence of human SIRPA E297A (V5-tagged library clone on HEK-293T cells) (P78324 31-504 E297A): as the sequence (P78324 31-504) above, with E267A counted along it
Experimental: (§3) Epitope mapping of anti-SIRPA antibodies was performed using an alanine-scanning library created by shotgun mutagenesis of the human SIRPA cDNA sequence. […] Each of the residues representing the SIRPA extracellular domain (amino acids 31-374 of SEQ ID NO:1) was mutated, most to alanine, while alanine codons were mutated to serine.
(§4) The SIRPA mutant library clones, arrayed in a 384-well microplate, were transfected individually into HEK-293T cells and allowed to express for 22 hours. Antibodies were digested to generate Fabs, after which cells were incubated with Fabs diluted in 10% normal goat serum (NGS) (Sigma-Aldrich, St. Louis, MO). Prior to library screening, primary Fab concentrations were determined using an independent immunofluorescence titration curve against cells expressing wild type SIRPA to ensure that signals were within the linear range of detection. Fabs were detected using 7.5 μg/ml AlexaFluor488-conjugated secondary antibody (Jackson ImmunoResearch Laboratories, Westgrove, PA) in 10% NGS. Cells were washed twice with PBS and resuspended in Cellstripper (Cellgro, Manassas, VA) with 0.1% BSA (Sigma-Aldrich, St. Louis, MO). In some cases, higher stringency conditions were used, including increased pH, increased temperature, and increased dissociation time. Mean cellular fluorescence was detected using the Intellicyt high throughput flow cytometer (HTFC, Intellicyt, Albuquerque, NM). Fab reactivities against each mutant clone were calculated relative to wild-type SIRPA protein reactivity by subtracting the signal from mock-transfected controls, and normalizing to the signal from wild-type SIRPA transfected controls.

[9] = molecular target: human SIRPA Q284A (V5-tagged library clone on HEK-293T cells) (human, UniProt P78324 31-504); assay: as above
Sequence of human SIRPA Q284A (V5-tagged library clone on HEK-293T cells) (P78324 31-504 Q284A): as the sequence (P78324 31-504) above, with Q254A counted along it
Experimental: as §3, §4

[10] = molecular target: human SIRPA Q281A (V5-tagged library clone on HEK-293T cells) (human, UniProt P78324 31-504); assay: as above
Sequence of human SIRPA Q281A (V5-tagged library clone on HEK-293T cells) (P78324 31-504 Q281A): as the sequence (P78324 31-504) above, with Q251A counted along it
Experimental: as §3, §4

[11] = molecular target: human SIRPA V302A (V5-tagged library clone on HEK-293T cells) (human, UniProt P78324 31-504); assay: as above
Sequence of human SIRPA V302A (V5-tagged library clone on HEK-293T cells) (P78324 31-504 V302A): as the sequence (P78324 31-504) above, with V272A counted along it
Experimental: as §3, §4

[12] = molecular target: human SIRPA L285A (V5-tagged library clone on HEK-293T cells) (human, UniProt P78324 31-504); assay: as above
Sequence of human SIRPA L285A (V5-tagged library clone on HEK-293T cells) (P78324 31-504 L285A): as the sequence (P78324 31-504) above, with L255A counted along it
Experimental: as §3, §4

[13] = molecular target: human SIRPA G337A (V5-tagged library clone on HEK-293T cells) (human, UniProt P78324 31-504); assay: as above
Sequence of human SIRPA G337A (V5-tagged library clone on HEK-293T cells) (P78324 31-504 G337A): as the sequence (P78324 31-504) above, with G307A counted along it
Experimental: as §3, §4

[14] = molecular target: human SIRPA W315A (V5-tagged library clone on HEK-293T cells) (human, UniProt P78324 31-504); assay: as above
Sequence of human SIRPA W315A (V5-tagged library clone on HEK-293T cells) (P78324 31-504 W315A): as the sequence (P78324 31-504) above, with W285A counted along it
Experimental: as §3, §4

[15] = molecular target: human SIRPA R282A (V5-tagged library clone on HEK-293T cells) (human, UniProt P78324 31-504); assay: as above
Sequence of human SIRPA R282A (V5-tagged library clone on HEK-293T cells) (P78324 31-504 R282A): as the sequence (P78324 31-504) above, with R252A counted along it
Experimental: as §3, §4

[16] = molecular target: human SIRPA W287A (V5-tagged library clone on HEK-293T cells) (human, UniProt P78324 31-504); assay: as above
Sequence of human SIRPA W287A (V5-tagged library clone on HEK-293T cells) (P78324 31-504 W287A): as the sequence (P78324 31-504) above, with W257A counted along it
Experimental: as §3, §4

[17] = molecular target: human SIRPA R295A (V5-tagged library clone on HEK-293T cells) (human, UniProt P78324 31-504); assay: as above
Sequence of human SIRPA R295A (V5-tagged library clone on HEK-293T cells) (P78324 31-504 R295A): as the sequence (P78324 31-504) above, with R265A counted along it
Experimental: as §3, §4

| Binder | SIRPA IC50 (nM), downregulation on U937 cells [1] [nM] | SIRPA Max % DR, U937 cells [1] [%] | EC50 [2] [nM] | binding result (rat SIRPA) | EC50 (huSIRPA v.2 NP542970.1) [nM] | EC50 (cynoSIRPA XPO15313153.1) [nM] | Kd [3] [nM] | koff [3] [s⁻¹] | kon [3] [M⁻¹ s⁻¹] | Phagocytosis, fold increase over baseline activity [4] [fold] | SIRPA IC50 (nM), downregulation on human primary macrophages [4] [nM] | SIRPA Max % DR, human primary macrophages [4] [%] | EC50 [5] [nM] | EC50 [6] [nM] | fold increase in affinity relative to parental h3F9 [7] [fold] | further results |
| --- | --- | --- | --- | --- | --- | --- | --- | --- | --- | --- | --- | --- | --- | --- | --- | --- |
| B1 | 1.17 | 69 | 0.42 | no binding | 0.08 | 0.879 | 0.618 | 0.000102 | 165000 | 1.56 | 0.0372 | 89 | 1.2 | 0.64 | ~10 |  |
| B2 | 0.187 | 76 | 0.49 | no binding | 0.082 | 0.107 | 0.646 | 0.000113 | 174000 | 1.68 | 0.0542 | 91 | 4.3 | 0.83 | ~10 |  |
| B3 |  |  |  |  |  |  |  |  |  |  |  |  |  |  |  | Binding Reactivity (% WT) [8]: 117 % WT; Binding Reactivity (% WT) [9]: 3.3 % WT; Binding Reactivity (% WT) [10]: 151 % WT; Binding Reactivity (% WT) [11]: 92.3 % WT; Binding Reactivity (% WT) [12]: 107 % WT; Binding Reactivity (% WT) [13]: 17.9 % WT; Binding Reactivity (% WT) [14]: 117 % WT; Binding Reactivity (% WT) [15]: 3.8 % WT; Binding Reactivity (% WT) [16]: 125 % WT; Binding Reactivity (% WT) [17]: 121 % WT |
